Measured values: US20110293511A1, “SPECIFIC BINDING PROTEINS AND USES THEREOF” (priority 2009, published 2011)

Columns and labels:
[1] = molecular target: wild-type EGFR (wtEGFR) (human) (UniProt P00533); test: Scatchard, 125I-labeled 528 on A431 cells
[2] = molecular target: wild-type EGFR (wtEGFR) (human) (UniProt P00533); test: immunohistochemistry on glioblastoma tissue; EGFR amplified, no de2-7 EGFR
[3] = molecular target: wild-type EGFR (wtEGFR) (human) (UniProt P00533); test: Scatchard, A431 cells
de2-7 EGFR (human) = de2-7 EGFR (human) (UniProt P00533); test: immunohistochemistry on glioblastoma tissue; EGFR amplified, de2-7 EGFR expressed

binding sites per cell (sites per cell) [1]: 2e+06
percent of immunoreactive cells (immunohistochemistry) [2]: > 75%
receptors per cell (receptors per cell) [3]: 2e+06
percent of immunoreactive cells (immunohistochemistry) (de2-7 EGFR (human)): > 75%
Substance: mAb528 (antibody)
